Among the data in patent US20210300974, “ARTIFICIAL TRANSCRIPTION FACTORS COMPRISING A SLIDING DOMAIN AND USES THEREOF” (THE BROAD INSTITUTE, INC., published 2021) are Kd values, retold here.

Primed or numbered codes have the meaning given here. Ends that are not written are not given here. TMR(3) = tetramethylrhodamine (TMR) label conjugated to the Cys side chain

For series [1], the system named is T1, TMR-(CH2)5-KRRR-NH2 (synthetic).
T1 sequence: KRRR
The experiment in a line: FP. As to conditions: 2 mM NaCl, pH 7.4.

The test system of series [2] is T2, TMR-(RL)4-NH2 (synthetic).
T2 sequence: RRRR
As to the kind of experiment: FP. As to conditions: 2 mM NaCl, pH 7.4.

Series [3] has as its system TMR-(RS)4-NH2 (synthetic). As to the kind of experiment: FP. Conditions: 2 mM NaCl, pH 7.4.
The next series deals with T3, TMR-KKKK-NH2 (synthetic).
T3 sequence: KKKK
The experiment in a line: FP. As to conditions: 2 mM NaCl, pH 7.4.

In series [4] the test system is T4, TMR-KRRR (C-terminal carboxylate) (synthetic).
T4 sequence: KRRR
The experiment in a line: FP. As to conditions: CITED (Xiong et al); pH 7.4; cited from earlier work.

For a further series, the system named is T5, TMR-KRRR-NH2 (synthetic).
T5 sequence: KRRR
As to the kind of experiment: FP. Conditions: 2 mM NaCl, pH 7.4.

The next series relates to T6, TMR-RRRK-NH2 (synthetic).
T6 sequence: RRRK
The experiment in a line: FP. As to conditions: 2 mM NaCl, pH 7.4.

Series [5] has as its system T7, TMR-RRRR (C-terminal carboxylate) (synthetic).
T7 sequence: RRRR
As to the kind of experiment: FP. Conditions: CITED (Xiong et al); pH 7.4; cited from earlier work.

A further series concerns T8, TMR-RRRR-NH2 (synthetic).
T8 sequence: RRRR
The experiment in a line: FP. As to conditions: 2 mM NaCl, pH 7.4.

Series [6] has as its system T9, TMR-beta3(KRRR)-NH2 (synthetic).
T9 sequence: KRRR
The experiment in a line: FP. As to conditions: 2 mM NaCl, pH 7.4.

In series [7] the test system is T10, TMR-beta3(RRRK)-NH2 (synthetic).
T10 sequence: RRRK
As to the kind of experiment: FP. Conditions: 2 mM NaCl, pH 7.4.

A further series deals with T11, KRRRC(-TMR)-NH2 (synthetic).
T11 chain: KRRRC(TMR(3))-NH2
The experiment in a line: FP; 2 mM NaCl, pH 7.4; text p253 states 46 ± 9. As to conditions: tags: TMR on Cys; free N-terminal amine; C-terminal amide.

On to “GACGACTAGGACGACGACGAGGATGACGAC (double strand) [30-mer dsDNA]”, for which the dissociation constant Kd in series [1] was 46 nM; in [2], 13 nM; in [3], 129 nM; in the series on TMR-KKKK-NH2 (synthetic), 53 nM; in series [4], 197 nM; in the series with TMR-KRRR-NH2 (synthetic), 46 nM. The Kd is 28 nM in the series with TMR-RRRK-NH2 (synthetic); 236 nM in [5]; 31 nM in the series on TMR-RRRR-NH2 (synthetic); 41 nM in series [6]; 49 nM in [7].

B1: 30-mer dsDNA (dsDNA)
DNA 1: GACGACTAGGACGACGACGAGGATGACGAC
DNA 2: GTCGTCATCCTCGTCGTCGTCCTAGTCGTC
In the series with KRRRC(-TMR)-NH2, B1 came in with a Kd of 54 nM.

The term Kd denotes the free concentration of one partner at which half of the binding sites on the other are occupied at equilibrium, for simple one-to-one binding.
